The source of these data is patent publication US20260258115A1 (MAPP BIOPHARMACEUTICAL, published 2026).

B1: ADI-41552 (antibody, V domains shown)
VH: EVQLLESGGGLVQPGGSLRLSCAASGFTFSPYSMNWVRQAPGKGLEWVSYISRSGSFKYYADSVKGRFTISRDDAKNSLYLHMNSLRDDDTAVYYCVSYCSSATCHQRFDYWGQGTLVTVSS
VL: EIVLTQSPATLSLSPGERATLSCRASQSVNSYLAWYQQKPGQAPRLLIYDASNRATGIPARFSGSGSGTDFTLTISSLEPEDFAVYYCQERNSWPKLTFGGGTKVEIK
B2: ADI-41581 (antibody, V domains shown)
VH: EVQLLESGSELKKPGASVKISCKTSGYTFTNYLMNWVRQAPGQGLEWMGWINTHTGNPTYAQDFTGRFVFSLDTSVNTAYLQISSLKAEDTAIYYCARDGLEAFSGYNGVDYWGQGTLVTVSS
VL: DIVMTQTPLSLPVTPGEPASISCRSSPSLLHSNGYNYLDWYLQKPGQSPQLLIYLGSTRASGVPDRFSGSGSGTDFTLRISRVEAEDVGVYYCMQALQIPLTFGQGTKLEIK
notes: also called Ab 855; Antibody Number 855
B3: ADI-41570 (antibody, V domains shown)
VH: QVQLVQSGAEVKKPGSSVKVSCMASGGTFSNSAINWVRQAPGQGLEWMGGTIPIFGAANYAQRFQARVTITADKSTSTAYMELTSLRSDDTAVYYCVRTPHRSSDHIWGSYRYFDSWGQGTLVTVSS
VL: QSVVTQEPSVSAAPGQKITISCSGSTSNIGINYVSWYQQFPGTAPKLLIYDNDKRPSGIPDRFSGSKSGTSATLGITGLQAGDEADYYCGTWDSSLSAGHIFGGGTKVTVL
notes: also called Ab 848; Antibody Number 848
B4: ADI-41807 (antibody, V domains shown)
VH: EVQLLESGPALVKPTQTLTLTCTFSGFSLTTTRMSVSWIRQPPGKALEWLARIDWDDDKYYSTSLKTRLTISKDTSKNQVVLTMTNMDPVDTATYFCARVNVYAANGYYSYYLDYWGQGTLVTVSS
VL: DIVMTQTPSSLSASVGDRVTITCRTSQSSSRYLNWYQKEPGKAPRLLIYLASALRSGVPSRFSGSGSGTDFTLTISSLQSEDFATYYCQQTYSIPWTFGQGTKVEIK
B5: ADI-41561 (antibody, V domains shown)
VH: QVQLVQSGPTLVKPTQTLTLTCSFSGFSLTNTGVGVGWIRQPPGKALEWLALIYWDDDKRYRPSLKSRLTITKDTSKSQVVLTMTNMDPLDTATYYCAHRRSAYDPIYFDYWGQGALVTVSS
VL: DIRVTQSPSSVSASVGDRVTITCRASRSINNWLAWYQQKPGKAPKLLIYAASSLQSGVPSRFSGSGYGTDFTLTISSLQPEDFATYYCQQAHSFPSITFGQGTRLEIK
B6: ADI-41569 (antibody, V domains shown)
VH: EVQLLESGAEVKKPGSSVKVSCKASGGTFSTYAISWVRQAPGQGLEWMGGIIPVLGTTKYAQKFQDRVTITADESTSTAYMDLSGLRSDDTAVYYCARGVWGDCGRASCLFDWYFDLWGRGTLVTVSS
VL: EIVMTQSPATLSVSPGERVTLSCSASQTVSSNLAWYQQKPGQAPRLLIYGASIRATDIPARFSGSGSRTEFTLTISSLQSEDFAVYYCQQYNNRPPLTFGGGTKVEIK
notes: also called Ab 847; Antibody Number 847
B7: ADI-41554 (antibody, V domains shown)
VH: EVQLVESGGGLVQPGGSLRLSCAASGFTFSSYPMNWVRQGPGKGLEWVSSISSSGASPYYADSVKGRFTISRDNSKNTLYLQMNSLRADDTAVYYCAREDYYYYYMDVWGKGTTVTVSS
VL: ETTLTQSPSTLSASVGDRVTITCRASESISSWLAWYQQKPGKAPKLLIFKASTVQSGVPSRFSGSGSGTEFTLTISSLQPDDFATYYCQQYNSYLLTFGGGTKVEIK
notes: also called Ab 836; Antibody Number 836
B8: ADI-41557 (antibody, V domains shown)
VH: EVQLLESGPGLVKPSETLSLTCNVSGGSISSYYWSWIRQSPGKGLEWIGHIYDTGYTNYNPSLKSRVTMSVDTSKNRFSLKLDSVTAADTAVYYCARGRGWRNLYNWFDPWGQGTLVTVSS
VL: DIVMTQSPATLSVSPGERATLSCRTSQSFSSMLAWYQQKPGQAPRLLIYGASTRATGIPARFSGSGSATEFTLTISNLQSEDVAVYYCQQYNSWPLTFGGGTKVEIK
notes: also called Ab 839; Antibody Number 839
B9: ADI-41811 (antibody, V domains shown)
VH: QVQLQQSGPRLVKPSHTLSLTCVISGDSVSSGSAAWSWIRQSPSRGLEWLGRTYYRSKWYYDYAVSVKGRIIIQPDTSKNQFSLQLNSVSPEDTAVYYCARDPDSGNYFHYYGMDVWGQGTTVTVSS
VL: DIVMTQSPATLSLSPGERATLSCRASQSVDVYFAWYQQKPGQAPRLLIYDASKRASGVPARFSGSASGTDFTLTISSLEPEDFAVYYCQQRAKWPPYTFGQGTKLEIK
B10: ADI-41583 (antibody, V domains shown)
VH: QVQLVQSGAEVKKPGSSVKVSCKASGGTFSRHTITWVRQAPGQGLEWMGRIAPIVGFANYAQKFQGRVTITADKSTSTAYMELRSLRSEDTAVYYCARRSEDYYGLDVWGQGTTVTVSS
VL: DIVMTQSPSSLSASVGDRVTITCQASQDISNYLNWYQQKPGKAPKLLIYEASNLETGVPSRFSGSGSGTDFTFTISSLQPEDIATYYCQQYDNLFGGGTKLEIK
B11: ADI-41558 (antibody, V domains shown)
VH: EVQLLESGGGLVKPGGSLRLSCEVSGFPFSDYYVSWIRQAPGKGLEWLSYSSRGGIYTNYADSVKGRFTISRDNDKNSLFLQMNSLRAEDTAVYYCARDRSDIWSGRVGFDYWGQGTLVTVSS
VL: DIVMTQSPATLSLSPGERATLSCRASQSVSSSYLAWYQQKPGQAPRLLIYGASSRATGIPDRFSGSGSGTDFTLTISRLEPEDFAVYYCQQYNKSPPGYIFGPGTKVDIK
notes: also called Ab 840; Antibody Number 840
B12: ADI-41564 (antibody, V domains shown)
VH: QVQLVQSGAEVKKPGSSVKVSCKAFGGTLRRYALSWVRQAPGQGLEWMGGIIPVFGTRRYAQKFQGRITITADGSTSTASMEVSSLRFEDTAIYYCATVYFDFVSGPPPTYYYYYMDVWGKGTTVTVSS
VL: B11 VL with A9G, N93D, K94S, P96L, P97R, G98V, Y99L, I100T, P103G
notes: also called Ab 844; Antibody Number 844
B13: ADI-41580 (antibody, V domains shown)
VH: QVQLQQWGAGLLKPSETLSLTCAVYGGSFSGYYWSWIRQPPGKGLEWIGEMNHSGGSNYNPSFKSRVTISVDTSKKYFSLNLSSVTAADTAIYYCARTPFYYESTGYYYYYYGMDVWGQGTTVTVSS
VL: DIVMTQTPDSLAVSLGERATINCKSSQSVSHSSNNKNYLSWYQQKPGQPPKLLIYWASIRESEAPDRFTGSGSGTDFTLTISSLQAEDVAVYYCQQYYTAPITFGQGTRLEIK
notes: also called Ab 854; Antibody Number 854
B14: ADI-41555 (antibody, V domains shown)
VH: EVQLVESGPGLVKPSQTLSLTCSVSGGSISSGIHYWSWIRQHPGKGLEWIGYIYYSGSTYYNPSLESRITISVDTSKNQFSLKVSSVTAADTAVYYCARVNRASRMTTFGVANERSIYYFMDVWGKGTTVTVSS
VL: ETTLTQSPATLSLSPGERATLSCRATQSVGNYLAWYQQKPGQAPRLLIHDASNRATGIPARFSGSGSGTDFTLTISSLEPEDFAVYYCQLRINWLFTFGPGTKVEIK
B15: ADI-41579 (antibody, V domains shown)
VH: QVQLVESGAEARKPGSSVKVSCKLSGGTFSTDPISWVRQAPGQGLEWMGRIIPLLGIANYAQKFQGRVTIIADKSTSTVYMELRNLRFEDTAVYFCARRGDGYYGMDVWGQGTTVTVSS
VL: QSVLTQPASVSGSPGQSITISCTGTSNDIGGYDYVSWYQQHPGKAPKLMIYDVHNRPSGVSNRFSGSKSGNTASLTISGLQAEDEADYYCSSFSDSGNLYVFGTGTKLTVL
B16: ADI-41808 (antibody, V domains shown)
VH: QVQLVQSGAELKKPGSSVRISCKVSGVTSDNYAITWVRQAPGQGLEWMGRVIPIFPVPQYAQKFQGRVTLSADKSTRTAYLELHSLRSEDTATYYCATHRPSDSWGQGTLVTVSS
VL: DIRVTQSPSTLSASVGDRVTITCRASQNINSWLAWYQQKPGKAPKLLIFKASSLESGVPARFSGSGFGTEFTLTITSLQPDDFASYYCQQYDTYPYPFGQGTKVEIK
notes: also called Ab 916; Antibody Number 916
B17: ADI-41804 (antibody, V domains shown)
VH: QVQLQQWGAGLLKPSETLSLTCSVLGGSFSGYYWTWIRQPPGKGLEWIGEITHDGSSNYNPSLNSRVTISVDTSNYQFSLKMRSVTAADTAVYYCARSPDLTIFGGLYFYYGISVWGQGTTVTVSS
VL: DIQMTQSPSSLSASMGDRVTITCRASQDISNYLAWYQQKPGKVPNLLIYAASTLQGGVPSRFSGSGSGTDFTLTISSLQPEDVAIYYCQKYKSAPRTFGQGTKVEIK

Changes are numbered by the printed parent chain.

One experiment deals with RSV F on RSV-A2 virus (Respiratory syncytial virus, RSV-A2, UniProt P03420 26-574). Nature of the experiment: cell-based or functional assay.
For the molecule B1, the “Neutralization IC50 (RSV subtype A)” value is more than 25 mg/L.
On the same count and under the same terms, as for B2, the figure is more than 25 mg/L; as for B3, 25 mg/L; as for B4, more than 25 mg/L.
Take B5: the “Neutralization IC50 (RSV subtype A)” value was more than 25 mg/L.
On the same count and under the same terms, with B6 the figure was more than 25 mg/L; with B7, more than 25 mg/L; with B8, more than 25 mg/L.
For the molecule B9, the “Neutralization IC50 (RSV subtype A)” value was more than 25 mg/L.
For B10, the “Neutralization IC50 (RSV subtype A)” value was more than 25 mg/L.
For B11, the “Neutralization IC50 (RSV subtype A)” value was more than 25 mg/L.
Consider B12, for which the “Neutralization IC50 (RSV subtype A)” value was more than 25 mg/L.
On to B13, for which the “Neutralization IC50 (RSV subtype A)” value came out at 1.11 mg/L.
For the molecule B14, the “Neutralization IC50 (RSV subtype A)” value was 25 mg/L.
As to B15, the “Neutralization IC50 (RSV subtype A)” value was 0.209 mg/L.
Take B16: the “Neutralization IC50 (RSV subtype A)” value is more than 25 mg/L.
Turning to B17, the “Neutralization IC50 (RSV subtype A)” value is more than 25 mg/L.

A further experiment concerns the target RSV postfusion F (postF), F ΔFP (Respiratory syncytial virus, UniProt P03420 26-513). Nature of the experiment: BLI, IgG on anti-human IgG sensor, 100 nM antigen. On the technique in general: In BLI a coated tip is dipped into the sample, and binding shifts an interference pattern.
For the molecule B1, the Kd (commonly the constant that tells how readily two partners part at equilibrium) is 0.522 nM.
B2 showed a Kd of 0.361 nM.
Turning to B3, the dissociation constant Kd was 1.12 nM. This Kd is about 3.1-fold higher than that of the molecule before.
With B4, the equilibrium dissociation constant (Kd) was found to be 1.19 nM.
On to B5, for which binding was put at a Kd of 0.516 nM.
Take B6: the Kd is 1.61 nM. Compared with the last molecule, the Kd is about 3.1-fold higher.
B7: binding was characterised by a dissociation constant (Kd) of 1.07 nM.
As to B8, the Kd amounted to 86.1 nM. Compared with the last molecule, the Kd is about 80-fold higher.
For the molecule B9, the Kd stood at 0.744 nM.
In turn, B10 displayed a Kd of 0.381 nM.
B11 returned a dissociation constant (Kd) of 0.7 nM.
B12 gave a dissociation constant Kd of 0.596 nM.
The molecule B13 registered a dissociation constant Kd of 1.17 nM.
Take B14: the Kd amounted to 1.12 nM.
Still for that read-out and setting: with B15 the figure was 0.36 nM; with B16, 22.5 nM.
B17 had an equilibrium dissociation constant (Kd) of 0.436 nM.

Another experiment deals with RSV prefusion F (preF), DS-Cav1 (Respiratory syncytial virus, UniProt P03420 26-513). Nature of the experiment: BLI, IgG on anti-human IgG sensor, 100 nM antigen.
As for B1, the Kd is 3.44 nM.
Still for that read-out and setting: with B2 the figure was 2.77 nM; with B3, 2.97 nM; with B4, 1.5 nM.
For the molecule B5, the Kd was 3.33 nM.
As to B6, binding was put at a Kd of 3.3 nM.
For the molecule B7, binding was put at a Kd of 1.35 nM.
Molecule B8 displayed a Kd of 30.9 nM.
B9 came in with a dissociation constant Kd of 1.64 nM. Compared with the last molecule, the Kd is about 19-fold lower.
For the molecule B10, the equilibrium dissociation constant (Kd) was determined as 0.664 nM.
Consider B11, for which the affinity, expressed as Kd, was 3.02 nM.
Consider B12, for which the affinity, expressed as Kd, was 4.44 nM.
As to B13, the dissociation constant Kd is 2.98 nM.
Still for that read-out and setting: with B14 the figure was 5.69 nM; with B15, 0.471 nM; with B16, 13.9 nM.
B17 yielded a Kd of 0.331 nM.
